Test results taken from patent publication US20040018971A1 (published 2004).

B1: HER2/neu peptide, position 706, 10 amino acids (peptide)
peptide: MPNQAQMRIL
notes: T0001 prints N at residue 706; also called Her2/neu.706
B2: HER2/neu peptide, position 701, 10 amino acids (peptide)
peptide: TPSGAMPNQA
notes: T0001 prints N at residue 706; also called Her2/neu.701
B3: HER2/neu peptide, position 706, 9 amino acids (peptide)
peptide: MPNQAQMRI
notes: as for B1

Molecular target: T1, HLA-B*0702 (human)
T1 construct: also called B7 supertype prototype molecule
Assay: inhibition of 125I standard peptide binding to purified HLA

| Binder | relative binding ratio |
| --- | --- |
| SPKANKEIL (also called Her2/neu.760) [HER2/neu peptide, position 760, 9 amino acids] | 0.12 ratio to standard peptide |
| WPDSLPDLSV (also called Her2/neu.415) [HER2/neu peptide, position 415, 10 amino acids] | 0.0044 ratio to standard peptide |
| NPEYLGLDVPV (also called Her2/neu.1245) [HER2/neu peptide, position 1245, 11 amino acids] | -0.0002 ratio to standard peptide |
| NPEGRYTF (also called Her2/neu.284) [HER2/neu peptide, position 284, 8 amino acids] | -0.0002 ratio to standard peptide |
| SPAFDNLYYW (also called Her2/neu.1214) [HER2/neu peptide, position 1214, 10 amino acids] | 0.0001 ratio to standard peptide |
| VPLPSETDGYV (also called Her2/neu.1118) [HER2/neu peptide, position 1118, 11 amino acids] | -0.0002 ratio to standard peptide |
| RPEDECVGEGL (also called Her2/neu.499) [HER2/neu peptide, position 499, 11 amino acids] | -0.0002 ratio to standard peptide |
| PPICTIDV (also called Her2/neu.944) [HER2/neu peptide, position 944, 8 amino acids] | -0.0006 ratio to standard peptide |
| VPIKWMAL (also called Her2/neu.884) [HER2/neu peptide, position 884, 8 amino acids] | 1.4 ratio to standard peptide |
| MPYGCLLDHV (also called Her2/neu.801) [HER2/neu peptide, position 801, 10 amino acids] | 0.0085 ratio to standard peptide |
| QPPICTIDVY (also called Her2/neu.943) [HER2/neu peptide, position 943, 10 amino acids] | 0.0001 ratio to standard peptide |
| PPAFSPAFDNL (also called Her2/neu.1210) [HER2/neu peptide, position 1210, 11 amino acids] | -0.0002 ratio to standard peptide |
| SPETHLDM (also called Her2/neu.38) [HER2/neu peptide, position 38, 8 amino acids] | 0.0014 ratio to standard peptide |
| PPICTIDVYM (also called Her2/neu.944) [HER2/neu peptide, position 944, 10 amino acids] | 0.0004 ratio to standard peptide |
| B1 | 0.049 ratio to standard peptide |
| NPEYLTPQGGA (also called Her2/neu.1193) [HER2/neu peptide, position 1193, 11 amino acids] | -0.0003 ratio to standard peptide |
| NPQLCYQDTIL (also called Her2/neu.158) [HER2/neu peptide, position 158, 11 amino acids] | -0.0002 ratio to standard peptide |
| PPGAASTQV (also called Her2/neu.17) [HER2/neu peptide, position 17, 9 amino acids] | 0.0001 ratio to standard peptide |
| QPHPPPAFSPA (also called Her2/neu.1206) [HER2/neu peptide, position 1206, 11 amino acids] | 0.0003 ratio to standard peptide |
| PPPAFSPAF (also called Her2/neu.1209) [HER2/neu peptide, position 1209, 9 amino acids] | 0.0002 ratio to standard peptide |
| SPGGLRELQL (also called Her2/neu.133) [HER2/neu peptide, position 133, 10 amino acids] | 0.058 ratio to standard peptide |
| TPTAENPEYL (also called Her2/neu.1240) [HER2/neu peptide, position 1240, 10 amino acids] | 0.0002 ratio to standard peptide |
| SPLTSIISAVV (also called Her2/neu.649) [HER2/neu peptide, position 649, 11 amino acids] | 0.025 ratio to standard peptide |
| VPLQRLRI (also called Her2/neu.94) [HER2/neu peptide, position 94, 8 amino acids] | 0.002 ratio to standard peptide |

| Binder | relative binding ratio |
| --- | --- |
| SPNHVKITDF (also called Her2/neu.855) [HER2/neu peptide, position 855, 10 amino acids] | 0.0016 ratio to standard peptide |
| NPHQALLHTA (also called Her2/neu.488) [HER2/neu peptide, position 488, 10 amino acids] | 0.0005 ratio to standard peptide |
| SPAFDNLYY (also called Her2/neu.1214) [HER2/neu peptide, position 1214, 9 amino acids] | 0.0001 ratio to standard peptide |
| RPRFRELVSEF (also called Her2/neu.966) [HER2/neu peptide, position 966, 11 amino acids] | 1.3 ratio to standard peptide |
| SPMCKGSRCW (also called Her2/neu.196) [HER2/neu peptide, position 196, 10 amino acids] | 0.0021 ratio to standard peptide |
| PPPAFSPA (also called Her2/neu.1209) [HER2/neu peptide, position 1209, 8 amino acids] | -0.0002 ratio to standard peptide |
| QPEQLQVF (also called Her2/neu.393) [HER2/neu peptide, position 393, 8 amino acids] | -0.0002 ratio to standard peptide |
| SPAFDNLY (also called Her2/neu.1214) [HER2/neu peptide, position 1214, 8 amino acids] | -0.0002 ratio to standard peptide |
| VPIKWMALESI (also called Her2/neu.884) [HER2/neu peptide, position 884, 11 amino acids] | 0.0017 ratio to standard peptide |
| QPEYVNQPDV (also called Her2/neu.1136) [HER2/neu peptide, position 1136, 10 amino acids] | 0.0001 ratio to standard peptide |
| WPDSLPDL (also called Her2/neu.415) [HER2/neu peptide, position 415, 8 amino acids] | 0.02 ratio to standard peptide |
| MPNPEGRYTF (also called Her2/neu.282) [HER2/neu peptide, position 282, 10 amino acids] | 0.0001 ratio to standard peptide |
| QPHPPPAF (also called Her2/neu.1206) [HER2/neu peptide, position 1206, 8 amino acids] | 0.0002 ratio to standard peptide |
| PPERGAPPSTF (also called Her2/neu.1227) [HER2/neu peptide, position 1227, 11 amino acids] | -0.0003 ratio to standard peptide |
| QPPSPREGPL (also called Her2/neu.1148) [HER2/neu peptide, position 1148, 10 amino acids] | 0.0014 ratio to standard peptide |
| VPLPSETDGY (also called Her2/neu.1118) [HER2/neu peptide, position 1118, 10 amino acids] | 0.0001 ratio to standard peptide |
| B2 | 0.0001 ratio to standard peptide |
| TPVTGASPGGL (also called Her2/neu.127) [HER2/neu peptide, position 127, 11 amino acids] | -0.0002 ratio to standard peptide |
| RPRFRELV (also called Her2/neu.966) [HER2/neu peptide, position 966, 8 amino acids] | 0.041 ratio to standard peptide |
| QPQNGSVTCF (also called Her2/neu.568) [HER2/neu peptide, position 568, 10 amino acids] | 0.0004 ratio to standard peptide |
| SPGKNGVV (also called Her2/neu.1174) [HER2/neu peptide, position 1174, 8 amino acids] | 0.023 ratio to standard peptide |
| SPLDSTFYRSL (also called Her2/neu.998) [HER2/neu peptide, position 998, 11 amino acids] | 0.064 ratio to standard peptide |
| PPICTIDVYMI (also called Her2/neu.944) [HER2/neu peptide, position 944, 11 amino acids] | 0.0064 ratio to standard peptide |
| VPLQRLRIV (also called Her2/neu.94) [HER2/neu peptide, position 94, 9 amino acids] | 0.0077 ratio to standard peptide |

| Binder | relative binding ratio |
| --- | --- |
| NPEYLGLDV (also called Her2/neu.1245) [HER2/neu peptide, position 1245, 9 amino acids] | 0.0001 ratio to standard peptide |
| QPPICTIDVYM (also called Her2/neu.943) [HER2/neu peptide, position 943, 11 amino acids] | 0.002 ratio to standard peptide |
| PPICTIDVY (also called Her2/neu.944) [HER2/neu peptide, position 944, 9 amino acids] | 0.0001 ratio to standard peptide |
| SPETHLDML (also called Her2/neu.38) [HER2/neu peptide, position 38, 9 amino acids] | 0.0005 ratio to standard peptide |
| QPPICTIDV (also called Her2/neu.943) [HER2/neu peptide, position 943, 9 amino acids] | 0.0001 ratio to standard peptide |
| NPQLCYQDTI (also called Her2/neu.158) [HER2/neu peptide, position 158, 10 amino acids] | 0.0001 ratio to standard peptide |
| SPYVSRLLGI (also called Her2/neu.779) [HER2/neu peptide, position 779, 10 amino acids] | 0.1 ratio to standard peptide |
| SPLTSIISA (also called Her2/neu.649) [HER2/neu peptide, position 649, 9 amino acids] | 0.015 ratio to standard peptide |
| SPGGLREL (also called Her2/neu.133) [HER2/neu peptide, position 133, 8 amino acids] | 0.055 ratio to standard peptide |
| SPGKNGVVKDV (also called Her2/neu.1174) [HER2/neu peptide, position 1174, 11 amino acids] | -0.0002 ratio to standard peptide |
| SPLDSTFY (also called Her2/neu.998) [HER2/neu peptide, position 998, 8 amino acids] | -0.0006 ratio to standard peptide |
| SPREGPLPAA (also called Her2/neu.1151) [HER2/neu peptide, position 1151, 10 amino acids] | 0.46 ratio to standard peptide |
| SPKANKEI (also called Her2/neu.760) [HER2/neu peptide, position 760, 8 amino acids] | 0.058 ratio to standard peptide |
| SPREGPLPA (also called Her2/neu.1151) [HER2/neu peptide, position 1151, 9 amino acids] | 0.64 ratio to standard peptide |
| B3 | 0.009 ratio to standard peptide |
| NPEGRYTFGA (also called Her2/neu.284) [HER2/neu peptide, position 284, 10 amino acids] | 0.0001 ratio to standard peptide |
| SPYVSRLL (also called Her2/neu.779) [HER2/neu peptide, position 779, 8 amino acids] | 0.044 ratio to standard peptide |
| PPSTFKGTPTA (also called Her2/neu.1233) [HER2/neu peptide, position 1233, 11 amino acids] | -0.0003 ratio to standard peptide |
| SPLTSIISAV (also called Her2/neu.649) [HER2/neu peptide, position 649, 10 amino acids] | 0.09 ratio to standard peptide |
| QPEQLQVFETL (also called Her2/neu.393) [HER2/neu peptide, position 393, 11 amino acids] | -0.0002 ratio to standard peptide |
| PPAFSPAF (also called Her2/neu.1210) [HER2/neu peptide, position 1210, 8 amino acids] | -0.0002 ratio to standard peptide |
| PPSPREGPL (also called Her2/neu.1149) [HER2/neu peptide, position 1149, 9 amino acids] | 0.0054 ratio to standard peptide |
| SPLAPSEGA (also called Her2/neu.1073) [HER2/neu peptide, position 1073, 9 amino acids] | 0.003 ratio to standard peptide |

Molecular target: HLA-B*0702 (human)
Assay: competition with 125I-labelled probe peptide for purified HLA, gel filtration

| Binder | relative binding ratio |
| --- | --- |
| APGAGGMV [HER2/neu peptide, position 1036, 8 amino acids] | 0.0063 ratio (IC50 of standard / IC50 of test peptide) |
| APLQPEQL [HER2/neu peptide, position 390, 8 amino acids] | < 0.0006 ratio (IC50 of standard / IC50 of test peptide) |
| APLQPEQLQV [HER2/neu peptide, position 390, 10 amino acids] | 0.0001 ratio (IC50 of standard / IC50 of test peptide) |
